Results from patent US20240181073A1, “Antibody-Drug Conjugates Comprising an Anti-BCMA Antibody” (Sorrento Therapeutics, Inc., priority 2021, published 2024).

T1: Human BCMA (B Cell Maturation Antigen) (human, UniProt Q02223 1-184)
T1 sequence: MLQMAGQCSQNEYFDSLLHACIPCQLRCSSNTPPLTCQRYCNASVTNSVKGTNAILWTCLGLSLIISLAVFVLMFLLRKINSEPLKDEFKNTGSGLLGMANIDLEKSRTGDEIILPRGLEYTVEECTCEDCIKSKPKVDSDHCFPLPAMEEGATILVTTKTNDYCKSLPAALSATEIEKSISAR

B1: anti-BCMA-AB1-Compound 1 (antibody, human IgG1, V domains shown)
VH: EVQLVESGGGLVKPGGSLRLSCAASGFTSSTAWMSWVRQAPGKGLEWVGRIKSKSDGGTTDYAAPVKGRFTISRDDSKNTLFLQMNSLKTEDTAVYYCAKGGGTYGYWGQGTTVTVSS
VL: QSVLTQPASVSGSPGQSVTISCTGTSSAHGGHYYVSWYQQHPGKAPKLMIYDVSNRPSGVSNRFSGSKSGNTASLTISGLQAEDEADYYCGSYTSSGSYVFGTGTKLTVL
modifications: drug-linker Compound 1 on antibody cysteine thiols (positions not stated)
B2: anti-BCMA-AB1-Compound 4 (antibody, human IgG1, V domains shown)
VH: EVQLVESGGGLVKPGGSLRLSCAASGFTSSTAWMSWVRQAPGKGLEWVGRIKSKSDGGTTDYAAPVKGRFTISRDDSKNTLFLQMNSLKTEDTAVYYCAKGGGTYGYWGQGTTVTVSS
VL: QSVLTQPASVSGSPGQSVTISCTGTSSAHGGHYYVSWYQQHPGKAPKLMIYDVSNRPSGVSNRFSGSKSGNTASLTISGLQAEDEADYYCGSYTSSGSYVFGTGTKLTVL
modifications: drug-linker Compound 4 on antibody cysteine thiols (C-lock conjugation; positions not stated)
B3: anti-BCMA-AB1-Compound 5 (antibody, human IgG1, V domains shown)
VH: EVQLVESGGGLVKPGGSLRLSCAASGFTSSTAWMSWVRQAPGKGLEWVGRIKSKSDGGTTDYAAPVKGRFTISRDDSKNTLFLQMNSLKTEDTAVYYCAKGGGTYGYWGQGTTVTVSS
VL: QSVLTQPASVSGSPGQSVTISCTGTSSAHGGHYYVSWYQQHPGKAPKLMIYDVSNRPSGVSNRFSGSKSGNTASLTISGLQAEDEADYYCGSYTSSGSYVFGTGTKLTVL
modifications: drug-linker Compound 5 on antibody cysteine thiols (C-lock conjugation; positions not stated)
B4: anti-BCMA-AB2-Compound 4 (antibody, V domains shown)
VH: EVQLVESGGGLVKPGGSLRLSCAASGFTSSTAWMSWVRQAPGKGLEWVGRIKSKSDGGTTDYAAPVKGRFTISRDDSKNTLFLQMNSLKTEDTAVYYCAKGGGTYGYWGQGTTVTVSS
VL: QSALTQPASVSGSPGQSVTISCTGTSSDGGGHTYVSWYQQHPGKAPKLMIYDVSNRPSWVSNRFSGSKSGNTASLTISGLQAEDEADYYCGSYTSSGSYVFGTGTKLTVL
modifications: drug-linker Compound 4 on antibody cysteine thiols (positions not stated)
B5: anti-BCMA-AB2-Compound 8 (antibody, V domains shown)
VH: EVQLVESGGGLVKPGGSLRLSCAASGFTSSTAWMSWVRQAPGKGLEWVGRIKSKSDGGTTDYAAPVKGRFTISRDDSKNTLFLQMNSLKTEDTAVYYCAKGGGTYGYWGQGTTVTVSS
VL: QSALTQPASVSGSPGQSVTISCTGTSSDGGGHTYVSWYQQHPGKAPKLMIYDVSNRPSWVSNRFSGSKSGNTASLTISGLQAEDEADYYCGSYTSSGSYVFGTGTKLTVL
modifications: drug-linker Compound 8 on antibody cysteine thiols (positions not stated)
B6: anti-BCMA-AB2-Compound 3 (antibody, V domains shown)
VH: EVQLVESGGGLVKPGGSLRLSCAASGFTSSTAWMSWVRQAPGKGLEWVGRIKSKSDGGTTDYAAPVKGRFTISRDDSKNTLFLQMNSLKTEDTAVYYCAKGGGTYGYWGQGTTVTVSS
VL: QSALTQPASVSGSPGQSVTISCTGTSSDGGGHTYVSWYQQHPGKAPKLMIYDVSNRPSWVSNRFSGSKSGNTASLTISGLQAEDEADYYCGSYTSSGSYVFGTGTKLTVL
modifications: drug-linker Compound 3 on antibody cysteine thiols (positions not stated)
B7: anti-BCMA-AB1-Compound 6 (antibody, human IgG1, V domains shown)
VH: EVQLVESGGGLVKPGGSLRLSCAASGFTSSTAWMSWVRQAPGKGLEWVGRIKSKSDGGTTDYAAPVKGRFTISRDDSKNTLFLQMNSLKTEDTAVYYCAKGGGTYGYWGQGTTVTVSS
VL: QSVLTQPASVSGSPGQSVTISCTGTSSAHGGHYYVSWYQQHPGKAPKLMIYDVSNRPSGVSNRFSGSKSGNTASLTISGLQAEDEADYYCGSYTSSGSYVFGTGTKLTVL
modifications: drug-linker Compound 6 on antibody cysteine thiols (C-lock conjugation; positions not stated)

Key:
Assay in all cases: cell-based or functional assay
[1] = molecular target: T1, Human BCMA (B Cell Maturation Antigen)
[2] = molecular target: T1, Human BCMA (B Cell Maturation Antigen); remark: listed apart in the source
[3] = molecular target: T1, Human BCMA (B Cell Maturation Antigen); remark: listed apart in the source

Row | Binder | EC50 of cell viability (Cell Titer-Glo), MM.1R (BCMA+) cells, 4-day assay [2] [nM] | EC50 of cell viability (Cell Titer-Glo), NCI-H929 (BCMA+) cells, 4-day assay [2] [nM] | EC50 of cell viability (Cell Titer-Glo), MM.1R (BCMA+) cells [3] [nM] | EC50 of cell viability (Cell Titer-Glo), NCI-H929 (BCMA+) cells [3] [nM] | also measured
1 | B1 |  |  |  |  | EC50 of cell viability (Cell Titer-Glo), MM.1R (BCMA+) cells, 5-day assay [1]: 1.02 nM; EC50 of cell viability (Cell Titer-Glo), NCI-H929 (BCMA+) cells, 5-day assay [1]: 0.168 nM
2 | B2 | > 1000 | 13.1 |  |  | 
3 | B3 | 20.5 | 3.04 |  |  | 
4 | B4 |  |  | > 1000 | 59 | 
5 | B5 |  |  | > 1000 | 29.7 | 
6 | B6 |  |  | 55.3 | 7.31 | 
7 | B7 | 16.6 | 2.38 |  |  | 
